Assay results reported in US20250257368A1 (FLAGSHIP PIONEERING INNOVATIONS V, published 2025).

Target: the molecule itself
Assay: self-assembly into virus-like particles, negative staining electron microscopy

B1: Ring2 ORF1 protein expressed as a full-length protein in insect cells (other)
chain: MPYYYRRRRYNYRRPRWYGRGWIRRPFRRRFRRKRRVRPTYTTIPLKQWQPPYKRTCYIKGQDCLIYYSNLRLGMNSTMYEKSIVPVHWPGGGSFSVSMLTLDALYDIHKLCRNWWTSTNQDLPLVRYKGCKITFYQSTFTDYIVRIHTELPANSNKLTYPNTHPLMMMMSKYKHIIPSRQTRRKKKPYTKIFVKPPPQFENKWYFATDLYKIPLLQIHCTACNLQNPFVKPDKLSNNVTLWSLNTISIQNRNMSVDQGQSWPFKILGTQSFYFYFYTGANLPGDTTQIPVADLLPLTNPRINRPGQSLNEAKITDHITFTEYKNKFTNYWGNPFNKHIQEHLDMILYSLKSPEAIKNEWTTENMKWNQLNNAGTMALTPFNEPIFTQIQYNPDRDTGEDTQLYLLSNATGTGWDPPGIPELILEGFPLWLIYWGFADFQKNLKKVTNIDTNYMLVAKTKFTQKPGTFYLVILNDTFVEGNSPYEKQPLPEDNIKWYPQVQYQLEAQNKLLQTGPFTPNIQGQLSDNISMFYKFYFKWGGSPPKAINVENPAHQIQYPIPRNEHETTSLQSPGEAPESILYSFDYRHGNYTTTALSRISQDWALKDTVSKITEPDRQQLLKQALECLQISEETQEKKEKEVQQLISNLRQQQQLYRERIISLLKDQ
notes: also called Anellovirus ORF1 protein
- binding result: binds
